Values quoted from earlier work as cited in publication PMC6039870.

Molecular target: RNH1 (Homo sapiens) (UniProt P13489)
Chain of UniProt P13489 (P13489 2-461): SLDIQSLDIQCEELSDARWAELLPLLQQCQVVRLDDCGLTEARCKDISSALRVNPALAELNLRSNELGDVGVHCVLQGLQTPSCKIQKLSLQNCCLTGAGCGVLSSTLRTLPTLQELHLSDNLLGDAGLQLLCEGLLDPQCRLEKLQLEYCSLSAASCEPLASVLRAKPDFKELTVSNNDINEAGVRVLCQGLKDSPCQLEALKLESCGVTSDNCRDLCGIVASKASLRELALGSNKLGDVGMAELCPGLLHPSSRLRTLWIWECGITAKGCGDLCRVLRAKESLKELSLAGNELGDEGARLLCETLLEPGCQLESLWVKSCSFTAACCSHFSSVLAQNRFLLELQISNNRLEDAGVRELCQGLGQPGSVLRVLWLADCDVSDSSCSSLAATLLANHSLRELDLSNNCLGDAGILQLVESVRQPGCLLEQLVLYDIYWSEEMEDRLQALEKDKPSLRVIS

## RNASE1 (from UniProt P07998)
  Kd: 0.0003 pM
